The text below walks through data of patent US20240181084.

For the data set, the system named is TALEN-integrase (HIV IN deltaC) fusion pair targeting eGFP, 16 bp spacer. Kind of data set: cell_activity. The note with it: chloramphenicol-resistant colonies vs untargeted integrase; COS-7 plasmid integration assay.

Substance eGFP TALEN pair target, 16 bp spacer displayed an activity of 6 fold.
